Laboratory results from a protein production outcome set (Wang et al. 2014).

Assay: label from the status in PepcDB records
With “MRVALTIAGSDSGGGAGVQADLKVFFRFGVYGTSALTLVTAQNTLGVQRVHLLPPEVVYAQIESVAQDFPLHAAKTGALGDAAIVEAVAEAVRRFGVRPLVVDPVMVAKSGDPLLAKEAAAALKERLFPLADLVTPNRLEAEALLGRPIRTLKEAEEAAKALLALGPKAVLLKGGHLEGEEAVDLLATRGGVLRFSAPRVHTRNTHGTGCTLSAAIAALLAKGRPLAEAVAEAKAYLTRALKTAPSLGHGHGPLDHWA” the protein production was “not failed”. With “MRVASDAGDAETLLAAVPANQRVAIVDARFVGHLHALRLGLTDPRFEAAALAGAVSAQPGARQALTRALARESSAATGGATVVMDNLAERITAALDADGVQVHRPDLGTLVAAVPADPQARNEVRQAVTAVDDEAVRLRTAVKSRDGFFTTHFISPYSRYLARWCARRGLTPNQVTTASLLTALVAAGCAATGTRAGFVAAGLLLLFSFVLDCADGQLARYSLQYSTLGAWLDATFDRAKEYAYYAGLALGAARGGDDVWALALGAMVLQSCRHIVDFSFNEANHDATANTSPTAALSDKLDSVGWTVWLRRMIVLPIGERWAMIAVLTALTTPRITFYALLIGCAFAATYTTAGRVLRSLTRKARRTDRAAQALADLTDSGPLAEFLTRFARRLRLRGPACVALVTGALVVLAAALAPYGSWWPVLAAVTYVLLSPVALLKPLKGALDWLVPPFYRAAEYGTVLVLAAKADVNGALPAAFGLVAAVAYHHYDTVYRIRGNAGAPPHWLVRAIGGHEGRTLLVTVLAALLVPTDFKVALTALAVAVALVVLVESIRFWVSSQAPAVHDEGEPA” the protein production was “failed”. For “MRVDLNSDLGESFGRYKLGLDEEVMKYITSANVACGWHAGDPLVMRKTVRLAKENDVQVGAHPGYPDLMGFGRRYMKLTPEEARNYILYQVGALYAFAKAEGLELQHVKPHGALYNAMVKEEDLARAVIEGILDFDKDLILVTLSNSRVADIAEEMGLKVAHEVFADRAYNPDGTLVPRGRPGAVIEDKEEIAERVISMVKDGGIRAINGEWVDLKVDTICVHGDNPKAVEITSYIRKVLEEEGVKIVPMKEFIR”, the protein production was “not failed”. In the case of “MRVFFSTLAGLALALAAGGAVASGLGDADKGREVFRQCAFCHAVGEGAENGIGPHLNGVFGRAAGRIEGVQYSKSMIRMGNDGLIWTAQTLDAYIENPRALVSKTRMSFRGIKNEQERSDLMAYLRRYSDDPGNIPEAEPTATGTDHDLDPVILAIQGDPEYGEYLASECKTCHQTSGANDGIPGITQWPTEDFVVAMHAYKRKLRPHPVMQMMAGRLSNDEIAALAAYFQDLE”, the protein production is reported as “failed”. With “MRVFLLLFLLFPVLELFLLVRVGMSIGFLWTFLLVVATSMLGLFVMRVAGFATALRARESLARGELPAQEMLEGLMVAVGGGLLLLPGFISDILGVICLLPITRRLLISKVRRRAEDQAMRQRAFADDLQTQANQGPASHRPNAIHQPTREPDVIEGEFEHRDK” the protein production was “failed”. For “MRVFPVYAPKLIVKHARIFLTGVIWVKDLGRLEFEKGRFLLPRKSLPKVKQAILELNELIEAQNHQTKTALEHHHHHH”, the protein production was “not failed”. With “MRVISGEYGGRRLKALDGDNTRPTTDKVKESIFNMIGPYFDGGMALDLYSGSGGLAIEAVSRGMDKSICIEKNFAALKVIKENIAITKEPEKFEVRKMDANRALEQFYEEKLQFDLVLLDPPYAKQEIVSQLEKMLERQLLTNEAVIVCETDKTVKLPETIGTLKKTRETVYGITQVTIYRQEA” the protein production was “not failed”. For “MRVLFIGDVFGQPGRRVLQNHLPTIRPQFDFVIVNMENSAGGFGMHRDAARGALEAGAGCLTLGNHAWHHKDIYPMLSEDTYPIVRPLNYADPGTPGVGWRTFDVNGEKLTVVNLLGRVFMEAVDNPFRTMDALLERDDLGTVFVDFHAEATSEKEAMGWHLAGRVAAVIGTHTHVPTADTRILKGGTAYQTDAGFTGPHDSIIGSAIEGPLQRFLTERPHRYGVAEGRAELNGVALHFEGGKATAAERYRFIED”, the protein production was “not failed”. In the case of “MRVLILGSGVIGTTSAWYLSKAGCEVVVVDRQSGAGLETSYANGGQLSFGYTSPWAAPGVPLKAVRWLFERHAPLSIRPTTDWNQYVWLARMLRHCSAERYAVNKSRMLRLSEYSREALEALSAETGITFEGRRLGTIQLFRTQQQLDGAVRDIELLTQYGIPYEVLSPHQLAKFEPGLADGSVRFVGALRLPHDQTGDCCLFTQRLAALAAKRGVEFRYGCTVQRLEVDGPRVTGAWINGALERADCCVVALGSYSPLLLAPLGLRLPVYPLKGFSLTLPMIDASRAPVSTVLDESYKVAVTRFDERIRVAGMAEVSGYDVSLNPRRRSTLEMVVQDVYPGCGDLGRGEFWTGLRPATPDGTPVIGATPYQGLFLNTGHGTLGWTMSSGSGRYLADLICCRPCEISSEGLDMFRYLVSTIPCPQECAPCVPPTP”, the protein production is reported as “failed”. In the case of “MRVLKKFFSGDNLLERVLILIVGLVASLILVIKSADLFVDNLVDLGSSLGISEVILGVTASAIGTSLPEFGSALIASLSGSTDIGVGCVIGSNIWNIAGILGISSVVAGIIETNADGLKRDFSATLVTGLILLFFMFFGNIGKIAALVMVLTYAVYLWRLIKAQKTYSDENSGKNEREPLDLKKLALTVVGFAGLVIGCRILVYTGVELADIAGIPAMIMGLFTLAIGTSIPELVVTLSSAVKGLHELSIGTVLGSNTFNILVGIGVPALIAPVPVERLSLTFDAPVMILVTVLLVLLIRQGDMKLKRTGGIVLLAVYISYVIMRLFVLA”, the protein production is reported as “failed”. In the case of “MRVPALKPILLQLHSVAGLVLAAVLVLVALTGAVMSFEDEIRGALDAGRVQLAPHAGSRMPLDALIAKLQAGGDPVASITMPRSAASAAEVRFARKPDHTRPAPLYLDPYTGESLGHPAADAFFATVRKLHRWLLLPGDGNGYGRTITGVAALGLLAMLLTGLVLRWPHRPGSIKVWLKPHWQLRGRGLHRSLHAVIGTWVLLLYLIMTLTGLWWSFDWYKTAATWLLARSPVTMQPPNRAAVTAAPSAAISLDRVWATLVAERGDRFEAARLTLPSGREGTVRVRAWLTDARDGAHDEFRIDGRSGQVLSADIYADKTIGEKVLARVLDIHRGSIFGWPGQLLFMLAAAAMPLFGVTGVLLYLSRRRHQRMQRAARAKVG”, the protein production is reported as “failed”. In the case of “MRVTHFFMAAIAVVFVLAGCSTMPKKPDSLTRGDYGYTKEYVSWLIKKEMRENDVTGLSIALVDDQRVVWAQGFGVADEANKVPATPDTIYRVGSISKLFTATAVLQLAEQGKMDIDKPLSTYLPEFSVKSRFPDAGPITPRTLMTHHSGLPSDFLKGMWTNNPEPISNVVNLLKDEYAQYPPNFVFSYSNLGVSLLGNAVERIAGRPYASQIDETVLHPLGMASSSFSTHSDVASRLAKGYRNGKEIGEPQLRDIPAGGLHTNVLDLSRFMEMVFAGGKAGERRILKEETLAEMLSPQNDGVPLDHDFHIGLGWLLTDVGIENAGKVAWHDGATLLYRSQMVILPEQKLGVVVLSNSATAASVVHKVATEALKLAMEAKAGIRQPERSKPVEREADLSPEERQKLAGAYVTPFGTVKVIESGTTLRTEFFGKTFSVVPRNDGRMGLRYRLLGVIPISLGDLDYLGFSTSTVSGHNVLLATAAGKSMLVGEKMEPVLVSEQWQRRVGAYEIANPGDDTMLVDDIRLRYEDGFLRVDYALPLFFDGKLNVSLQPLSDTEAVIRGLGRGMGETIRVVAVNGEEMLQYSGYLLKKKRE”, the protein production is reported as “failed”. For “MRVVVISSFVSVSLQLSFLLLLASAIRSSSSPPNDPFLGISPQDEKYYKSSSEIKCKDGSKKFTKAQLNDDFCDCSDGTDEPGTSACPTGKFYCRNAGHSPVILFSSRVNDGICDCCDGSDEYDGHVSCQNTCWEAGKAARENLKKKIETYNQGLVIRRQEIEQAKVGLEKDAAELKKLKSEQKILKGLVDQLKDRKEQIEKVEEKERLQKEKEEKEKKEAELAAQQGKGDAEEKTDDSEKVEESSHDEGTPAVSQHDETTHHDEIGNYKDYPSDEEPAAEGEPTSILDEATHTNPADEHVVERKEESTSSEDSSSPTDESQNDGSAEKEESDEVKKVEDFVTEKKEELSKEELGRLVASRWTGEKSDKPTEADDIPKADDQENHEHTPITAHEADEDDGFVSDGDEDTSDDGKYSDHEPEDDSYEEEYRHDSSSSYKSDADDDVDFSETTSNPTWLEKIQKTVKNILLAVNLFQTTPVDKSEADRVRKEYDESSSKLNKIQSRISSLEKKLKQDFGPEKEFYSFHGRCFESKQGKYTYKVCAYKEATQEEGYSKTRLGEWDKFENSYQFMSYTNGEKCWNGPDRSLKVKLRCGLKNELMDVDEPSRCEYAAILSTPARCLEDKLKELQQKLEKLMNQDKPQNHDEL”, the protein production was “failed”. In the case of “MRWNICVVGAGKIGQMIAALLKTSSNYSVTVADHDLAALAVLNRMGVATKQVDAKDEAGLAKALGGFDAVISAAPFFLTPIIAKAAKAAGAHYFDLTEDVAATNAVRALAEDSQTAFMPQCGLAPGFVGIAGAALAAEFDEIDSLHMRVGALPLYPTNALKYNLTWSTDG”, the protein production is reported as “failed”. With “MRYGFMKVAAAVPFVKVADCEYNIERIDRMVHEADAKGVEIMTFPELSITGYSCGDLFFQPFLQERANEALCRLVEQTANTTVMVIVGMPLRVEEKLFNSAVVFQQGKILGAIPKTYLPNYREFQEARWFSPAHTLQYSTISIGQHSVPIGRNLIFKCGTVGVGIEICEDMWTPFTPGTRLCLYGAEVIFNLSSSNENAGKHSYLRSLISGLSSQGICAYVYASSGYGESSTDIVFTGKAFIAEAGEIVEEMERFRYEERMIISDIDVSRIQTERLINSSFKA” the protein production was “failed”. For “MRYSIYLCILFVLSILSCNSKQEDRVIESFYVRKDDLGRNVSISVNPKRILSLTPSITELVYTFSDTSRLIGRSVWCDYPAGVKVIPAVNNYPLDIEGVVRLKPDLILVKQGMISVQELDKLEQLHLAVYVQKYDLLNEIYASTKTLVEITKGDSATYKHWLTSMQSDTMHTSVQHAKTCLAVTSVSPIYVFGKTTFVSELIEQAGGKNCVETIQSAYPTVDVEYILRANPDVFIFNSTDQQKLFFETYPLLKQCKGYITNQLFVIDDSIMSRPGIRLPILKDSLVSILSK”, the protein production was “failed”. For “MSAALPSIQLPVDYNNLFNEITDFLVTFKQDTLSSDATRNENEDENLDAENIEQHLLEKGPKYMAMLQKVANRELNSVIIDLDDILQYQNEKFLQGTQADDLVSAIQQNANHFTELFCRAIDNNMPLPTKEIDYKDDVLDVILNQRRLRNERMLSDRTNEIRSENLMDTTMDPPSSMNDALREVVEDETELFPPNLTRRYFLYFKPLSQNCARRYRKKAISSKPLSVRQIKGDFLGQLITVRGIITRVSDVKPAVEVIAYTCDQCGYEVFQEVNSRTFTPLSECTSEECSQNQTKGQLFMSTRASKFSAFQECKIQELSQQVPVGHIPRSLNIHVNGTLVRSLSPGDIVDVTGIFLPAPYTGFKALKAGLLTETYLEAQFVRQHKKKFASFSLTSDVEERVMELITSGDVYNRLAKSIAPEIYGNLDVKKALLLLLVGGVDKRVGDGMKIRGDINVCLMGDPGVAKSQLLKAICKISPRGVYTTGKGSSGVGLTAAVMKDPVTDEMILEGGALVLADNGICCIDEFDKMDESDRTAIHEVMEQQTISISKAVINTNPGARTSILAAANPLYGRINPRLSPLDNINLPAALLSRFDILFLMLDIPSRDDDEKLAEHVTYVHMHNKQPDLDFTPVEPSKMREYIAYAKTKRPVMSEAVNDYVVQAYIRLRQDSKREMDSKFSFGQATPRTLLGIIRLSQALAKLRLADMVDIDDVEEALRLVRVSKESLYQETNKSKEDESPTTKIFTIIKKMLQETGKNTLSYENIVKTVRLRGFTMLQLSNCIQEYSYLNVWHLINEGNTLKFVDDGTMDTDQEDSLVSTPKLAPQTTASANVSAQDSDIDLQDA”, the protein production was “failed”. In the case of “MSADLKQSRLADWRQRALAFEREVGKAVIGLERPIRHILIAVFARGHVMLEGDVGVGKTTLLRAVARCLGGAYERVEGTIDLMPNDLVYHTYINELGKPQVEPGPVLKHGEELSVFFFNEVNRARPQVHSLLLRIMAEHAVSAFNREHFFPYLQVFADRNRVEKEETFEIPSAARDRFMMELHVETPADPALRRALMFDPKFHDVDRLLDTLTPGILPYREIPQIAPVIQQSVTASETLQQYALDLWEATRRPADYGVKLEGIDMDRLILAGASARGVSMMMRAARVAAWLDGRDYLVPEDIHDVFRETIGHRVFFNPVYELRRTALIDELLHAIRQKVAAPLEHHHHHH”, the protein production is reported as “not failed”.
